{"source": "the RNAGym collection of RNA variant scans (doi:10.1021/acssynbio.7b00057)", "parents": {"B1": {"name": "Pistol ribozyme (parent)", "chain": "GGGUCGUUGUUCCAUAAUCGCGUGGAUAUGGCACGCAAGUUUCUACCGGGCACCGUAAAUGUCCGACUGGAGCCGUUCGGGCGGCUAUAAACAGACCUCAGGCCCGAAGCGUGGCGGCACCUGCCGCCGGUGGUAAAAAAGAUCGGAAGAGCACACGUCU"}}, "data": [{"variants_of": "B1", "test": "aptazyme ON/OFF ratio, guanine; higher = stronger switching; co-transcriptional cleavage with and without guanine", "values": [{"variant": "U7C U8C U10C C12U C13G", "aptazyme ON/OFF ratio": 1.34}, {"variant": "U7A U8C U10C U11A C12G C13U", "aptazyme ON/OFF ratio": 1.21}, {"variant": "U7A U8C G9C U10G U11G C12G C13U", "aptazyme ON/OFF ratio": 1.05}, {"variant": "U7C U8G G9A U10A U11C C12A C13G", "aptazyme ON/OFF ratio": 1.15}, {"variant": "U8G U11G C12A C13U", "aptazyme ON/OFF ratio": 1.21}, {"variant": "U7A U8A G9C U10A C12U C13A", "aptazyme ON/OFF ratio": 1.09}, {"variant": "U7A G9C U10G C12G", "aptazyme ON/OFF ratio": 1.11}, {"variant": "U7C U8A G9U U10G U11C", "aptazyme ON/OFF ratio": 1.07}, {"variant": "U7C U8C G9U U10A U11A C12U C13A", "aptazyme ON/OFF ratio": 1.09}, {"variant": "U7A U8C G9C U11A C12G C13U", "aptazyme ON/OFF ratio": 1.13}, {"variant": "U8G G9U U10G U11C C13A", "aptazyme ON/OFF ratio": 1.02}, {"variant": "U7A U8G G9C U10G U11G", "aptazyme ON/OFF ratio": 1.25}, {"variant": "U8A G9A U10A U11A C12G C13G", "aptazyme ON/OFF ratio": 1.18}, {"variant": "U7C G9A U11A C12U", "aptazyme ON/OFF ratio": 1.19}, {"variant": "U7G G9A U10A U11G C12G C13G", "aptazyme ON/OFF ratio": 1.14}, {"variant": "U7C U8A G9C C12A C13A", "aptazyme ON/OFF ratio": 1.15}, {"variant": "U7A U11G", "aptazyme ON/OFF ratio": 1.17}, {"variant": "U7C U8A G9A U10C U11G C12G C13G", "aptazyme ON/OFF ratio": 1.12}, {"variant": "U7G U8C G9C U10G U11G C12G C13U", "aptazyme ON/OFF ratio": 1.09}, {"variant": "U7A U8A G9C U10C U11C C13U", "aptazyme ON/OFF ratio": 1.04}, {"variant": "U8A G9A U10C U11A C12A C13U", "aptazyme ON/OFF ratio": 1.17}, {"variant": "U8A G9C C12G", "aptazyme ON/OFF ratio": 1.22}, {"variant": "U7C U11C C12U C13G", "aptazyme ON/OFF ratio": 1.22}, {"variant": "U8A G9C U10G C12U C13A", "aptazyme ON/OFF ratio": 1.21}, {"variant": "U8G U10A U11C C12A C13G", "aptazyme ON/OFF ratio": 1.12}, {"variant": "U7C U8C G9C U10C C13U", "aptazyme ON/OFF ratio": 2.85}, {"variant": "U7C U8G U10A U11A C12A", "aptazyme ON/OFF ratio": 1.14}, {"variant": "U7G G9C C12U C13G", "aptazyme ON/OFF ratio": 1.18}, {"variant": "U7C U8A U11C C12U", "aptazyme ON/OFF ratio": 1.44}, {"variant": "U7A U8G G9C U10C C12A", "aptazyme ON/OFF ratio": 1.15}, {"variant": "U7A U8A G9A U11G C12A C13A", "aptazyme ON/OFF ratio": 1.08}, {"variant": "U7G U8G G9U U10G U11C C12A C13G", "aptazyme ON/OFF ratio": 1.11}, {"variant": "U7C U8G G9A U10C U11A C12G", "aptazyme ON/OFF ratio": 1.13}, {"variant": "U7G U8G U10A U11A", "aptazyme ON/OFF ratio": 2.25}, {"variant": "U7G U8A G9U U10A U11G C12G C13U", "aptazyme ON/OFF ratio": 1.08}, {"variant": "U8C U11G C13U", "aptazyme ON/OFF ratio": 1.17}, {"variant": "U8C U10C U11A C12G C13U", "aptazyme ON/OFF ratio": 1.24}, {"variant": "U7C G9C U10A U11C C12U", "aptazyme ON/OFF ratio": 1.04}, {"variant": "U7G U8G G9A U10A U11C C13A", "aptazyme ON/OFF ratio": 1.08}, {"variant": "U7A G9A U11A C12U", "aptazyme ON/OFF ratio": 1.54}, {"variant": "G9U U10A U11C C12G C13A", "aptazyme ON/OFF ratio": 1.3}, {"variant": "U7A U8G U10G U11A C12G", "aptazyme ON/OFF ratio": 1.59}, {"variant": "U7G U8A G9A U10C C12A C13A", "aptazyme ON/OFF ratio": 1.07}, {"variant": "U7G U8A G9U U10G U11C C13U", "aptazyme ON/OFF ratio": 1.06}, {"variant": "U7C G9U U10C U11C C13A", "aptazyme ON/OFF ratio": 1}, {"variant": "U7C G9U U10C U11G C12U", "aptazyme ON/OFF ratio": 1.22}, {"variant": "U8C G9A U10C C12A C13G", "aptazyme ON/OFF ratio": 1.18}, {"variant": "U7C U8C G9U C12G C13G", "aptazyme ON/OFF ratio": 1.12}, {"variant": "U7C U8C G9A U10C C12U C13U", "aptazyme ON/OFF ratio": 1.32}, {"variant": "U7C U8C G9U U11A C12U", "aptazyme ON/OFF ratio": 1.25}, {"variant": "U7C U8G U11G C12G C13U", "aptazyme ON/OFF ratio": 1.05}, {"variant": "U7A U8G G9U U10C U11C C13G", "aptazyme ON/OFF ratio": 1.12}, {"variant": "U8G G9C U10C C12U C13G", "aptazyme ON/OFF ratio": 1.05}, {"variant": "U7C U8G G9A U10G U11C C12A C13G", "aptazyme ON/OFF ratio": 1.1}, {"variant": "U8C G9A U10A U11A C12A C13U", "aptazyme ON/OFF ratio": 1.3}, {"variant": "U7G U8C G9U U10C U11G C12A C13G", "aptazyme ON/OFF ratio": 1.21}, {"variant": "U7A U8C G9U U10C U11G C13U", "aptazyme ON/OFF ratio": 1.25}, {"variant": "U7A U8A G9A U10A C12A", "aptazyme ON/OFF ratio": 1.28}, {"variant": "U7C G9A U10A U11G C12A", "aptazyme ON/OFF ratio": 1.02}, {"variant": "U7A G9U U10A U11G C13G", "aptazyme ON/OFF ratio": 1.07}, {"variant": "U7A U8G G9C U11G C12A", "aptazyme ON/OFF ratio": 1.67}, {"variant": "G9A U10A U11A C12A C13A", "aptazyme ON/OFF ratio": 1.4}, {"variant": "U7C G9A U10A U11G C12U C13G", "aptazyme ON/OFF ratio": 1.13}, {"variant": "U7G G9U U11G C12U C13U", "aptazyme ON/OFF ratio": 1.44}, {"variant": "U7G U8C G9C U10A U11G C12A C13U", "aptazyme ON/OFF ratio": 1.11}, {"variant": "U7C U8G U10A U11G C12U C13U", "aptazyme ON/OFF ratio": 1.17}, {"variant": "U7G U8G G9C U10C U11G C12A C13G", "aptazyme ON/OFF ratio": 1.31}, {"variant": "U7G G9U U10G U11A C12U C13U", "aptazyme ON/OFF ratio": 1.23}, {"variant": "U7C U8G G9C U10A C13A", "aptazyme ON/OFF ratio": 1.14}, {"variant": "U7A G9A U11G C12U C13U", "aptazyme ON/OFF ratio": 1.27}, {"variant": "U8A G9A U10G C12G", "aptazyme ON/OFF ratio": 1.16}, {"variant": "U8C G9C U10G C13G", "aptazyme ON/OFF ratio": 1.19}, {"variant": "U7C U8G G9U C12A C13A", "aptazyme ON/OFF ratio": 1.42}, {"variant": "U7A G9C U10G U11G C12U C13G", "aptazyme ON/OFF ratio": 1.12}, {"variant": "U8G G9C U10C U11C C12A C13G", "aptazyme ON/OFF ratio": 1.06}, {"variant": "U7A U8C G9C U10A C12U C13U", "aptazyme ON/OFF ratio": 1.07}, {"variant": "U7A U8A G9C U10G U11C C12A", "aptazyme ON/OFF ratio": 1.81}, {"variant": "U8A U10A U11C C12A C13A", "aptazyme ON/OFF ratio": 1.08}, {"variant": "U7A U8C G9C U10C U11A C12U", "aptazyme ON/OFF ratio": 1.03}, {"variant": "U7C U8C G9C U10C U11C C12A C13G", "aptazyme ON/OFF ratio": 1.09}, {"variant": "U8G U10C U11A C12G C13A", "aptazyme ON/OFF ratio": 1.07}, {"variant": "U7A U8G G9A U10G U11G C13U", "aptazyme ON/OFF ratio": 1.22}, {"variant": "U11G C12A C13G", "aptazyme ON/OFF ratio": 1.22}]}]}
